Results published in the supplement of paper PMC10567573.

B1: UFD1L (parent)
chain: EAGGRFVAFSGEGQSLRKKGRKP
B2: KCNK9 (parent)
chain: DVPDLQSVCSCTCYRSQDYGGRSV
B3: MMP1 (parent)
chain: YTPDLPRADVDHAIEKAFQLWSNV

Variants of: B1
Experiment: protein stability index of a GFP-peptide fusion (GPS, HEK-293T) (PSI 1-6); higher = more stable
Details: c terminus: native
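Also: lentivirally expressed fusions sorted by FACS into six bins by GFP to DsRed ratio, PSI derived from sequencing read proportions per bin multiplied by bin number.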

Protein stability index: each site, then its substitutions
G4: D 2.5 | T 1.5 | N 1 | L 1.25 | K 2.58 | H 2.12 | Q 1.92 | S 3.12
S15: P 2.16 | D 1.87 | V 1.72 | L 2.95 | T 1.84 | H 2.1 | Y 2.91 | A 2.2 | G 2.42 | R 2.45
G3: M 2.11 | W 1.67 | P 1.24 | T 2.14 | N 1.63 | S 1.82 | L 3.08 | E 2.71 | C 1.6 | Q 2.16 | D 1.88
R17: M 2.25 | K 2.88 | H 2.2 | G 2.95 | T 2.03 | N 3.46 | L 2.18 | D 3 | S 2.73 | C 1.48
A2: N 1.23 | S 1.82 | R 1.1 | P 2.55 | H 1.15 | T 1.64 | Y 2.35 | I 3 | D 3.92
K19: T 3.08 | R 1.68 | D 1.74 | E 1.58 | A 3.83 | P 1.07 | G 3.02 | Q 2.05 | C 2.4
P23: K 4.87 | C 3.15 | S 3.2 | L 3.73 | M 2.85 | Y 3.01 | N 2.62 | I 3.95 | V 4.09 | W 5.5 | Q 4.65
E1: C 2.5 | Y 3.86 | G 2.5 | T 2.17 | L 1.92 | D 2.33
K18: E 1.49 | Q 1.87 | T 1.97 | D 2.01 | C 2.11 | F 2.3 | I 3.76 | V 1.39 | H 1.24 | R 1.48
L16: Q 2.72 | R 2.64 | D 3.34 | V 2.98 | C 2.79 | Y 2.51 | M 1.65 | T 2.18 | E 2.53 | S 3.42 | P 1.18 | W 1.03 | N 2.61
Q14: S 2.5 | C 3.07 | N 2.02 | E 1.58 | D 1.26 | R 2.51 | A 1.83 | G 2.12 | F 2.93 | V 2.4
E12: T 3.41 | K 1.69
S10: A 1.38 | N 2.98 | Q 3.48 | D 2.36 | P 2.83 | T 1.77 | K 1.4 | I 1.72
G20: L 2.04 | K 4.63 | Q 3.83 | D 2.12 | E 2.78 | N 1.82 | M 1.57 | A 3.91 | H 3.25 | P 4.77 | W 1.81 | S 2.12 | V 2.53
F6: P 3.15 | H 1.75 | A 3.06 | T 4.93 | Q 2.17 | D 4.59 | K 2.25 | M 1.81 | S 2.41 | Y 2.38 | G 2.2
G11: S 1.54 | P 2.21 | A 1.26 | N 1.82 | L 1.85 | C 2.52
R5: A 3.01 | N 2.6 | K 2.01 | T 3.2 | S 3.17 | Q 3.3 | F 2.14 | D 4.49 | M 1.85 | Y 1.48 | P 3.69 | I 1.48 | E 3.18 | L 2.46
R21: I 3.99 | S 2.83 | Y 4.7 | Q 5.19 | T 4.35 | M 4.38 | G 5.2 | C 3.45 | K 5 | P 4.98 | V 4.06 | N 5.27 | A 4.78 | L 2.88
V7: H 1.37 | A 2.69 | E 2.91 | N 2.18 | T 1.18 | Y 1.12 | F 1.9 | S 1.72 | D 3.75 | I 1.9 | G 1.39 | C 2.03 | L 1.5
K22: N 2.93 | D 2 | G 2.15 | F 2.77 | I 2.43 | T 1.45
A8: H 1.34 | Q 2.18 | T 1.77 | F 2.8 | I 1.11 | N 1.41 | L 1.5
F9: I 1.19 | E 4.02 | W 2.96 | K 1.75 | P 3.64 | A 3.29 | T 2.28 | V 2.02 | R 3.73 | H 1 | Q 2.25
G13: L 2.52 | Q 1.16 | P 2.73 | T 1.23 | R 1.35 | I 1.28 | N 1.55 | K 2.03 | S 1.9 | A 2.22 | V 2.38

Variants of: B2
Experiment: as above
Details: c terminus: a fixed tail appended

Protein stability index of substitutions, site by site:
L5: I 2.54 | C 1.83 | D 2.42 | A 1.63 | F 2.15 | G 1.65 | K 1.9 | H 1.82 | E 3.6
D1: T 1.86 | S 2.29 | R 1.62 | L 2.59 | I 1.33 | N 1.29 | H 3.67 | E 1.44 | C 1.04 | M 1.54 | G 1.26 | Q 2.87 | A 1.54 | V 1.51 | K 2.23 | P 2.33
P3: H 1.8 | E 2 | G 1.41 | D 1.36 | M 2.11 | S 1.99 | W 1.33 | I 2.22 | T 1.73 | Q 1.93 | N 1.45 | A 1.34 | K 1.12 | C 2.14 | Y 1.4
V2: R 2.2 | S 2.19 | K 2.43 | Y 1.82 | W 1.68 | N 2.7 | G 1.5 | D 1.78 | A 1.84 | P 1.55 | E 2.93 | I 1.78 | T 2.57 | M 2.31 | H 1.67 | Q 1.59 | F 1.69 | C 2.07
D4: P 2.05 | S 1.86 | F 1.4 | N 2.07 | M 2.28 | L 1.75 | T 2.48 | Q 3.18 | E 2.06 | C 1.64 | K 2.17 | I 2.81 | G 1.45 | Y 2.86

Variants of: B3
Experiment: as above
Details: c terminus: a fixed tail appended

Protein stability index, by site and new letter:
S22: W 1.91 | Y 1.67
N23: C 1.29 | A 2.05 | W 1.97 | H 1.69 | M 2.02 | Y 1.43 | V 2.23 | F 2.29 | E 2.49 | T 2.07 | I 2.05 | G 2.12 | S 2.28 | R 2.01 | L 2.1 | D 1.86 | Q 1.57 | K 2.28
V24: R 1.53 | S 1.66 | L 1.65 | F 1.83 | N 1.94 | Y 2.63 | C 1.87 | G 2.37 | K 2.5 | E 2.16 | Q 2.14 | P 2.43 | T 2.29 | M 2.29 | A 2.06 | H 1.71 | I 1.79 | W 2.39 | D 2.02
